These results are taken from patent US20200247889A1 (published 2020).

In one test the target is 9067s. Description: SPR. Background: Surface plasmon resonance follows binding to a sensor surface in real time, without labels.
Test [1] has as its target T1, mouse TREM1 (mouse, UniProt Q9JKE2 21-230).
T1 chain: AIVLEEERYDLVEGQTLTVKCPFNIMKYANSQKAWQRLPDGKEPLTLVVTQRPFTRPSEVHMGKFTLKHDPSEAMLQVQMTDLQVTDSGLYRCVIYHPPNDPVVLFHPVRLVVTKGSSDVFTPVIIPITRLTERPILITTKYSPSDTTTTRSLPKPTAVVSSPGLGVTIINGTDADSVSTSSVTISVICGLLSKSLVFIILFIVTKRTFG
Description: cell binding.

The target of test [2] is T1, mouse TREM1. Description: cell binding; BALB/c splenocyte neutrophils.
Test [3] deals with T1, mouse TREM1. Description: SPR (Biacore); avid.
Test [4] deals with T2, cynomolgus TREM1 (cynomolgus, UniProt A0A2K5VHG8 21-233).
T2 chain: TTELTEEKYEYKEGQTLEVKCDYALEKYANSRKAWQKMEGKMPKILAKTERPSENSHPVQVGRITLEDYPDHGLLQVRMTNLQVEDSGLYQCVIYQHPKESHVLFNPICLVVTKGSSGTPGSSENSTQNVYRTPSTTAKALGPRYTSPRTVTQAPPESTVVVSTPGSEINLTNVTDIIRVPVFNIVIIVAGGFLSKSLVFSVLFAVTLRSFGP
Description: cell binding.

Test [5] addresses T2, cynomolgus TREM1. Description: flow cytometry cell binding.

In general, Kd refers to the constant that tells how readily two partners part at equilibrium. As a reminder, the EC50 is the midpoint of the concentration-response curve. Lower therefore signals higher potency in that assay.

B1: Protein binding (receptor)
chain: AIVLEEERYDLVEGQTLTVKCPFNIMKYANSQKAWQRLPDGKEPLTLVVTQRPFTRPSEVHMGKFTLKHDPSEAMLQVQMTDLQVTDSGLYRCVIYHPPNDPVVLFHPVRLVVTKGSSDVFTPVIIPITRLTERPILITTKYSPSDTTTTRSLPKPTAVVSSPGLGVTIINGTDADSVSTSSVTISVICGLLSKSLVFIILFIVTKRTFG
With B1, in the test with 9067s, the Kd came out at 0.87 nM.

B2: Pi-9772 (antibody, V domains shown)
VH: EVQLVESGGGLVQPGGSLRLSCAASGFDLSYSSMHWVRQAPGKGLEWVAYISPYSGYTSYADSVKGRFTISADTSKNTAYLQMNSLRAEDTAVYYCARHGSWSYGFSSGFDYWGQGTLVTVSS
VL: DIQMTQSPSSLSASVGDRVTITCRASQSVSSAVAWYQQKPGKAPKLLIYSASSLYSGVPSRFSGSRSGTDFTLTISSLQPEDFATYYCQQYAYYYPITFGQGTKVEIKR
For the molecule B2, the 50% effective concentration (EC50) in the test with mouse TREM1 [1] amounted to 2.85 nM; in the test with mouse TREM1 [2] it was 6.83 nM. The molecule further came in with a Kd with mouse TREM1 [3] of 0.15 nM.

B3: afucosylated Pi-9772 (antibody, V domains shown)
VH: EVQLVESGGGLVQPGGSLRLSCAASGFDLSYSSMHWVRQAPGKGLEWVAYISPYSGYTSYADSVKGRFTISADTSKNTAYLQMNSLRAEDTAVYYCARHGSWSYGFSSGFDYWGQGTLVTVSS
VL: DIQMTQSPSSLSASVGDRVTITCRASQSVSSAVAWYQQKPGKAPKLLIYSASSLYSGVPSRFSGSRSGTDFTLTISSLQPEDFATYYCQQYAYYYPITFGQGTKVEIKR
modifications: afucosylated Fc glycan
The molecule B3 registered an EC50 in the test with mouse TREM1 [1] of 6.35 nM. This molecule registered an equilibrium dissociation constant (Kd) with mouse TREM1 [3] of 0.71 nM.

B4: mAb0170 (antibody, V domains shown)
VH: EVQLVESGGGLVQPGGSLKLSCAASGFTFSTYAMHWVRQASGKGLEWVGRIRTKSSNYATYYAASVKGRFTISRDDSKNTAYLQMNSLKTEDTAVYYCTRDMGIRRQFAYWGQGTLVTVSS
VL: DIVLTQSPDSLAVSLGERATINCRASESVDTFDYSFLHWYQQKPGQPPKLLIYRASNLESGVPDRFSGSGSGTDFTLTISSLQAEDVAVYYCQQSNEDPYTFGQGTKLEIK
Regarding B4, the EC50 with cynomolgus TREM1 [4] and with cynomolgus TREM1 [5] was 0.13 nM throughout.

B5: afucosylated Pi-4928 (antibody, V domains shown)
VH: QVQLKESGPGLVQPSQTLSLTCTVSGFSITSSNVYWFRQPPGKGLEWMGNIWGDGSTDYNSSLKSRLTLSRDTSKNQVFLKINSLQSEDTATYFCTRSWEYYFDHWGQGVVVTVSS
VL: DIVLTQSPALAVSPGQRATLSCRASQSVTLSNVNLMNWYQQKPGQQPKLLIYHASNLASGIPTRFSGSGSGTDFTLTIDPVQADDIAAYYCQQSGESPRTFGGGTKVELKR
modifications: afucosylated Fc glycan
The molecule B5 yielded a 50% effective concentration (EC50) with mouse TREM1 [1] of 2.32 nM. In addition, in the test with mouse TREM1 [3], binding was characterised by a dissociation constant (Kd) of 0.11 nM.

B6: Pi-4928 (antibody, V domains shown)
VH: QVQLKESGPGLVQPSQTLSLTCTVSGFSITSSNVYWFRQPPGKGLEWMGNIWGDGSTDYNSSLKSRLTLSRDTSKNQVFLKINSLQSEDTATYFCTRSWEYYFDHWGQGVVVTVSS
VL: DIVLTQSPALAVSPGQRATLSCRASQSVTLSNVNLMNWYQQKPGQQPKLLIYHASNLASGIPTRFSGSGSGTDFTLTIDPVQADDIAAYYCQQSGESPRTFGGGTKVELKR
Regarding B6, the half-maximal effective concentration (EC50) stood at 1.41 nM in the test with mouse TREM1 [1] and 1.36 nM with mouse TREM1 [2]. In the test with mouse TREM1 [3], this molecule registered an equilibrium dissociation constant (Kd) of 0.11 nM.

B7: Pi-9067L (antibody, V domains shown)
VH: EVQLVESGGGLVQPGGSLRLSCAASGFDIYSYSIHWVRQAPGKGLEWVAYIYPSYGYTSYADSVKGRFTISADTSKNTAYLQMNSLRAEDTAVYYCARGAVAALDYWGQGTLVTVSS
VL: DIQMTQSPSSLSASVGDRVTITCRASQSVSSAVAWYQQKPGKAPKLLIYSASSLYSGVPSRFSGSRSGTDFTLTISSLQPEDFATYYCQQYGVSGYSLITFGQGTKVEIKR
As for B7, the results for the half-maximal effective concentration (EC50) in the test with mouse TREM1 [1] and with mouse TREM1 [2] were 1.85 nM and 0.98 nM, respectively. Besides, binding with mouse TREM1 [3] was put at a Kd of 0.09 nM.

B8: afucosylated Pi-9067L (antibody, V domains shown)
VH: EVQLVESGGGLVQPGGSLRLSCAASGFDIYSYSIHWVRQAPGKGLEWVAYIYPSYGYTSYADSVKGRFTISADTSKNTAYLQMNSLRAEDTAVYYCARGAVAALDYWGQGTLVTVSS
VL: DIQMTQSPSSLSASVGDRVTITCRASQSVSSAVAWYQQKPGKAPKLLIYSASSLYSGVPSRFSGSRSGTDFTLTISSLQPEDFATYYCQQYGVSGYSLITFGQGTKVEIKR
modifications: afucosylated Fc glycan
Molecule B8 returned an EC50 in the test with mouse TREM1 [1] of 2.9 nM. Moreover, the Kd with mouse TREM1 [3] came to 0.15 nM.
